Test results as given in patent publication US20180094044A1.

Assays:
[1] = target: CD19 (UniProt P15391); assay: cell-based or functional assay
[2] = target: CD19 CAR with CD34 spacer #C2 (human); assay: MACS selection of transduced Jurkat cells with bead-labelled antibody, flow cytometry of fractions
[3] = target: CD19 CAR with CD34 spacer #C3 (human); assay: as above
[4] = target: CD19 CAR with CD34 spacer #C4 (human); assay: as above
[5] = target: CD19 CAR with CD34 spacer #C5 (human); assay: as above
CD19 CAR with CD34 spacer #C5 (human), sequence (P28906 42-110): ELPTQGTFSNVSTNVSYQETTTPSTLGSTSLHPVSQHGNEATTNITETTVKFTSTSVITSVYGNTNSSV

[6] = target: CD19 CAR with CD34 spacer #C7 (human); assay: as above
CD19 CAR with CD34 spacer #C7 (human), sequence (P28906 42-220): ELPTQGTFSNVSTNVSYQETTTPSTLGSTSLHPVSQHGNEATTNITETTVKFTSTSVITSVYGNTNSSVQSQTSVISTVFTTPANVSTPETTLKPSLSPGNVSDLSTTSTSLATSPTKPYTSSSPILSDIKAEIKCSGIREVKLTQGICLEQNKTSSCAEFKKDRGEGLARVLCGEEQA

[7] = target: CD19 CAR with NGFR/CD271 spacer #N3; assay: as above
CD19 CAR with NGFR/CD271 spacer #N3, sequence (P08138 108-227): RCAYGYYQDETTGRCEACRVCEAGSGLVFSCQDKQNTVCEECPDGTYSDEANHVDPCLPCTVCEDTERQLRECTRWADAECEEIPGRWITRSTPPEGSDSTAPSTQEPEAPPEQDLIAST

[8] = target: CD19 CAR with NGFR/CD271 spacer #N4; assay: as above
CD19 CAR with NGFR/CD271 spacer #N4, sequence (P08138 66-227): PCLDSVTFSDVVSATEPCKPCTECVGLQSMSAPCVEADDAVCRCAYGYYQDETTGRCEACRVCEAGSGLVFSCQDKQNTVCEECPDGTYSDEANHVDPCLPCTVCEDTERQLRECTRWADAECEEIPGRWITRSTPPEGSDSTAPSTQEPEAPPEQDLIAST

CD19 CAR with CD34 spacer #C4 (human), sequence (P28906 32-90): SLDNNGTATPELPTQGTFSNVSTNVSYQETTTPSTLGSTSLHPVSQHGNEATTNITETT
CD19 CAR with CD34 spacer #C3 (human), sequence (P28906 42-90): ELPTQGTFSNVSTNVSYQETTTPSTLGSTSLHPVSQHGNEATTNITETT
CD19 CAR with CD34 spacer #C2 (human), sequence (P28906 32-63): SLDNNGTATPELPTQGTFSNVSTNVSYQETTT
UniProt P15391, sequence (P15391 20-556 limits assumed): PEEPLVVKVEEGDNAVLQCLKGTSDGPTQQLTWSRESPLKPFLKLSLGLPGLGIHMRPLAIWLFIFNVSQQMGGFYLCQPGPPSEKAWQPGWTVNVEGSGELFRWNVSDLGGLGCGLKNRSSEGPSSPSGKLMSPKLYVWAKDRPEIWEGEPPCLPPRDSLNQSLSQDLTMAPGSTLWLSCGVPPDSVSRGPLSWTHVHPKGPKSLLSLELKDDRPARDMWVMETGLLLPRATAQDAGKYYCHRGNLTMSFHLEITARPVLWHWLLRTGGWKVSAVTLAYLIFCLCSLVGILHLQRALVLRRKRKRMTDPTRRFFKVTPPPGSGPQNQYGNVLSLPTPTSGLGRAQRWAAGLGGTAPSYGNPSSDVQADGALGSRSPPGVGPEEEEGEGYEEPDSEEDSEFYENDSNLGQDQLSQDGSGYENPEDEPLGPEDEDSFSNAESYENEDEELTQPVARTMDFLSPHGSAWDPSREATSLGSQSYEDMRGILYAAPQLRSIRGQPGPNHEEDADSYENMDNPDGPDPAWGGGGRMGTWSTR

Which killing of REH cells at 0.1:1 effector to target cell ratio [1] does the source give for “CD19 CAR with the IgG4 CH2CH3 as spacer domain (from UniProt P01861 99-327)” here?
Its killing of REH cells at 0.1:1 effector to target cell ratio is 48.9%.

With CD34 monoclonal antibody QBend10 as the substance, how does the percent positive cells before MACS [2] read?
Its percent positive cells before MACS is 68.7%.

And the percent positive cells in flow through [2]?
Its percent positive cells in flow through is 68.1%.

And the percent positive cells before MACS [3]?
Its percent positive cells before MACS is 61.6%.

And the percent positive cells in flow through [3]?
Its percent positive cells in flow through is 47.6%.

What about the percent positive cells before MACS [4] of the same substance?
The percent positive cells before MACS was 64.3%.

What about the percent positive cells in flow through [4] of the same substance?
Its percent positive cells in flow through is 47%.

What about the percent positive cells before MACS [5] of the same substance?
Its percent positive cells before MACS is 65.5%.

And the percent positive cells in flow through [5]?
Its percent positive cells in flow through is 41.1%.

What about the percent positive cells before MACS [6] of the same substance?
The percent positive cells before MACS was 78.4%.

And the percent positive cells in flow through [6]?
The percent positive cells in flow through was 67.1%.

How did the percent positive cells before MACS [7] turn out when CD271 monoclonal antibody ME20.4 was run?
Its percent positive cells before MACS is 60.1%.

And the percent positive cells in flow through [7]?
Its percent positive cells in flow through is 57.2%.

And the percent positive cells before MACS [8]?
Its percent positive cells before MACS is 51.4%.

And the percent positive cells in flow through [8]?
Its percent positive cells in flow through is 49.7%.
